T1: human CXCR2 (hCXCR2) on cells (human, UniProt P25025 1-360)
T1 sequence (looked up): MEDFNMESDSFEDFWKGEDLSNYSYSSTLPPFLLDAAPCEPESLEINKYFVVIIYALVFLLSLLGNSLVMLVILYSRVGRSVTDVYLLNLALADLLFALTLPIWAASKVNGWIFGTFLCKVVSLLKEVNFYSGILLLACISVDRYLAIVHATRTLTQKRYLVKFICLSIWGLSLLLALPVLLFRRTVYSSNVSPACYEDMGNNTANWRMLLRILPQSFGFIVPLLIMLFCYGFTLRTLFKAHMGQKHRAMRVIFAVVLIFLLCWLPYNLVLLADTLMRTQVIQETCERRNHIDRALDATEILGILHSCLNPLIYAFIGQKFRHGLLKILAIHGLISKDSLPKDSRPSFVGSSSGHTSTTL

T2: rCXCR2-mCherry (rat, UniProt P35407 1-359)
T2 construct: whole, on cells; Overexpressed in U2OS cells; also called CXCR2 of rat; not shown: mCherry fluorescent tag
T2 sequence (looked up): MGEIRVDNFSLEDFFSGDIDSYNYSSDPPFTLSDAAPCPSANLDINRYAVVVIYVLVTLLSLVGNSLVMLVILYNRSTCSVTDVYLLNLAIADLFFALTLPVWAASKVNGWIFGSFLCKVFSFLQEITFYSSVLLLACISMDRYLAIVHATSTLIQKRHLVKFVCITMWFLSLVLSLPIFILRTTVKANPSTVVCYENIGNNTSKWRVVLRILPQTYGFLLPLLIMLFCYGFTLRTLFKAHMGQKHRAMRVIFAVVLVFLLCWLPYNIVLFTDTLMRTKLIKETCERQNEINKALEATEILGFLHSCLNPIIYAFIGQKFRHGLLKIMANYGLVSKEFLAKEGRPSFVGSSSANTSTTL

T3: rbCXCR2-mCherry (rabbit, UniProt P35344 1-358)
T3 construct: whole, on cells; Overexpressed in U2OS cells; also called rabbitCXCR2; CXCR2 of rabbit; not shown: mCherry fluorescent tag
T3 sequence (looked up): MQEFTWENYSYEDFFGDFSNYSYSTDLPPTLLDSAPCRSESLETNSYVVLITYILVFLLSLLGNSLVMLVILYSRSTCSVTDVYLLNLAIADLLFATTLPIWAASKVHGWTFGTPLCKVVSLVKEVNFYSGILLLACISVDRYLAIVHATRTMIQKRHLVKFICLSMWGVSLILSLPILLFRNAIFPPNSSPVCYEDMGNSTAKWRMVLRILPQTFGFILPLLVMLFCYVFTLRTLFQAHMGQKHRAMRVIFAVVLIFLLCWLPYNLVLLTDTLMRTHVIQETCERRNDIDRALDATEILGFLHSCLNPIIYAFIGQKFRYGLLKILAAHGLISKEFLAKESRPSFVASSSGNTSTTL

T4: pepN48 (peptide of the 48 N-terminal extracellular amino acids of human CXCR2) (human, biotin labeled on its N-terminus (panning, ELISA, SPR))
T4 construct: Synthetic; also called N-terminus of CXCR2
T4 peptide: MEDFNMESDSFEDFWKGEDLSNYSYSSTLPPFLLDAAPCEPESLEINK

T5: hCXCR1-mCherry (human, UniProt P25024 1-350)
T5 construct: whole, on cells; Overexpressed in U2OS cells; not shown: mCherry fluorescent tag
T5 sequence (looked up): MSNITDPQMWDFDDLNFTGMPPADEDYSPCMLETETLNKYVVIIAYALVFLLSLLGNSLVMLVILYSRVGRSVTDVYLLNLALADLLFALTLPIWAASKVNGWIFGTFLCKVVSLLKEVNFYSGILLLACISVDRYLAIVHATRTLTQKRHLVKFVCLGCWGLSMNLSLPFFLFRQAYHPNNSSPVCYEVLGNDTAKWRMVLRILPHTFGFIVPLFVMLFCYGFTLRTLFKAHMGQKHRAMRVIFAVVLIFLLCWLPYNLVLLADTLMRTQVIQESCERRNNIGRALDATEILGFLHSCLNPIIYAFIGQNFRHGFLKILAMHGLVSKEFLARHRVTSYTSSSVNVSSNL

T6: mCXCR2-mCherry (mouse, UniProt P35343 1-359)
T6 construct: whole, on cells; Overexpressed in U2OS cells; also called CXCR2 of mouse; not shown: mCherry fluorescent tag
T6 sequence (looked up): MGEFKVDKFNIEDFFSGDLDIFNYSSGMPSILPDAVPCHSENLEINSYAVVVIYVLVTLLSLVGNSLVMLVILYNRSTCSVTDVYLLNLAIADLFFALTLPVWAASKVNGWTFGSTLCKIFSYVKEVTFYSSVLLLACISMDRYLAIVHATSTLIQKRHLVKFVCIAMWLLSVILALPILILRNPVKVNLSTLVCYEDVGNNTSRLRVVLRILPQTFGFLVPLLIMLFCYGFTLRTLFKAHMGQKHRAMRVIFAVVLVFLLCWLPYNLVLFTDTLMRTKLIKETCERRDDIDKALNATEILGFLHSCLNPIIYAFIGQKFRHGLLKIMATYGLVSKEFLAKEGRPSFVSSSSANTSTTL

T7: pepN9-19 (human)
T7 construct: Synthetic peptide, residues 9-19 of human CXCR2 (DSFEDFWKGED); also called NT9-19; pep9-19
T7 peptide: DSFEDFWKGED

T8: pepN48Δ9-19 (human)
T8 construct: pepN48 with residues 9-19 deleted; also called pepN48 lacking 9-19 aa
T8 peptide: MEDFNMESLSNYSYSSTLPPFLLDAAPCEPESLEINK


Assays:
[1] = molecular target: T1, human CXCR2 (hCXCR2) on cells; assay: cell-based or functional assay
[2] = molecular target: T2, rCXCR2-mCherry; assay: FACS on transfected U2OS cells
Experimental: (§1) Cells were transfected with expression plasmids containing target membrane proteins. After 24 hours, cells were detached from dish and re-suspended in a FACS buffer (0.5% BSA in PBS, with 2 mM EDTA). 500,000 cells per tube were incubated with 2 μg/mL corresponding antibody in a FACS buffer at 4° C. for 15 min. […] After two washes with the FACS buffer, cells were re-suspended in PBS and analyzed by CytoFLEX S (Beckman Coulter).

[3] = molecular target: T3, rbCXCR2-mCherry; assay: FACS on transfected U2OS cells
Experimental: as §1

[4] = molecular target: T4, pepN48 (peptide of the 48 N-terminal …); assay: SPR, Biacore T200; biotinylated pepN48 on SA chip;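 also: antibodies flowed in HBS-EP+ running buffer over the immobilized antigen at 0.5 to 10 nM, kinetic traces fitted to a protein-protein interaction model to derive constants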
Experimental: Biotinylated antigen (purified protein or peptide) was loaded on the streptavidin coated surface of a SA biosensor chip (GE healthcare) to form a single molecular layer. The interaction between antibody and antigen was carried out on a Biacore T200 system (GE Healthcare). Briefly, testing antibody were serially diluted in a running buffer, HBS-EP+buffer (GE Healthcare), to different concentrations of 0.5, 1, 2, 5, 10 nM, and flowed through the surface of chip for the detection of molecular interaction between antigen and antibody. Kinetics of binding/dissociation were measured and fitted to an appropriate protein-protein interaction model to calculate the corresponding binding constant (KD).

[5] = molecular target: T5, hCXCR1-mCherry; assay: FACS on transfected U2OS cells (also immunofluorescence)
Experimental: as §1

[6] = molecular target: T6, mCXCR2-mCherry; assay: as above
Experimental: as §1

[7] = molecular target: T7, pepN9-19; assay: binding to truncated synthetic peptides (FIG. 9); method not named
[8] = molecular target: T8, pepN48Δ9-19; assay: as above

Molecule | Kd [4] [nM] | koff [4] [s⁻¹] | kon [4] [M⁻¹ s⁻¹] | further results
GROα (CXCL1) (from UniProt P09341 35-107) (ligand) |  |  |  | β-arrestin recruitment, Tango assay, apparent EC50 [1]: 5.3 nM
IL8 (from UniProt P10145 28-99) (ligand) |  |  |  | β-arrestin recruitment, Tango assay, apparent EC50 [1]: 4.5 nM
abN48-IgG1 (antibody, V domains shown, also called full-length abN48) VH: QVQLVQSGAEVKKPGSSVKVSCKASGGTLSSYAISWVRQAPGQGPEWMGWINPNSGGTNYAQKFQGRVTMTRDTSISTAYMELSRLRPDDTAVYYCASGYCSSTSCYDYWGQGTLVTVSS VL: QAVLTQPSSLSASPGASVSLTCTLRSGINVGAYRIYWYQQKPGSPPQFLLRYKSDSDKQQGSGVPSRFSGSRDASANAGILLISGLRSEDEADYYCAIWHSSAWVFGGGTQLTVLG | 0.78 | 0.00035 | 350000 | inhibition of GROα-induced (EC80) β-arrestin recruitment, Tango assay, apparent IC50 [1]: 4.7 nM; inhibition of GROα-induced (EC90) Ca2+ influx, FLIPR, IC50 [1]: 1000 nM; inhibition of IL8-induced (EC80) β-arrestin recruitment, Tango assay, apparent IC50 [1]: 2.8 nM; inhibition of IL8-induced (EC90) Ca2+ influx, FLIPR, IC50 [1]: 190 nM; binding result [2]: no binding (tested: 2 µg/mL); binding result [3]: no binding (tested: 2 µg/mL); binding result [5]: no binding (tested: 2 µg/mL); binding result [6]: no binding (tested: 2 µg/mL)
abN48 Fab (Fab, V domains shown, also called abN48 (Fab form); Fab form of abN48-IgG1) VH: QVQLVQSGAEVKKPGSSVKVSCKASGGTLSSYAISWVRQAPGQGPEWMGWINPNSGGTNYAQKFQGRVTMTRDTSISTAYMELSRLRPDDTAVYYCASGYCSSTSCYDYWGQGTLVTVSS VL: QAVLTQPSSLSASPGASVSLTCTLRSGINVGAYRIYWYQQKPGSPPQFLLRYKSDSDKQQGSGVPSRFSGSRDASANAGILLISGLRSEDEADYYCAIWHSSAWVFGGGTQLTVLG |  |  |  | binding result [7]: binds; binding result [8]: no binding
abN48-3 (antibody, V domains shown, format as tested not clearly stated) VH: QVQLVQSGAEVKKPGSSVKVSCKASGGTLSSYAISWVRQAPGQGPEWMGWINPNSGGTNYAQKFQGRVTMTRDTSISTAYMELSRLRPDDTAVYYCASGYCSFAICFDSWGQGTLVTVSS VL: QAVLTQPSSLSASPGASVSLTCTLRSGINVGAYRIYWYQQKPGSPPQFLLRYKSDSDKQQGSGVPSRFSGSRDASANAGILLISGLRSEDEADYYCAIWHSSAWVFGGGTQLTVLG | 0.63 | 0.00016 | 360000 | 
abN48-1 (antibody, V domains shown, Format as tested not clearly stated (sub-cloned to pFuse vector, expressed in HEK293T)) VH: QVQLVQSGAEVKKPGSSVKVSCKASGGTLSSYAISWVRQAPGQGPEWMGWINPNSGGTNYAQKFQGRVTMTRDTSISTAYMELSRLRPDDTAVYYCASGFCTRTICFVYWGQGTLVTVSS VL: QAVLTQPSSLSASPGASVSLTCTLRSGINVGAYRIYWYQQKPGSPPQFLLRYKSDSDKQQGSGVPSRFSGSRDASANAGILLISGLRSEDEADYYCAIWHSSAWVFGGGTQLTVLG | 0.26 | 6.4e-05 | 250000 | 
abN48-2 Fab (Fab, V domains shown, Made as abN48 Fab ('following a similar protocol'); also called abN48-2 (Fab form); Fab form of abN48-2-IgG2 (so in the source)) VH: QVQLVQSGAEVKKPGSSVKVSCKASGGTLSSYAISWVRQAPGQGPEWMGWINPNSGGTNYAQKFQGRVTMTRDTSISTAYMELSRLRPDDTAVYYCASGYCSRTRCYDYWGQGTLVTVSS VL: QAVLTQPSSLSASPGASVSLTCTLRSGINVGAYRIYWYQQKPGSPPQFLLRYKSDSDKQQGSGVPSRFSGSRDASANAGILLISGLRSEDEADYYCAIWHSSAWVFGGGTQLTVLG |  |  |  | binding result [7]: binds; binding result [8]: no binding
abN48-5 (antibody, V domains shown, format as tested not clearly stated) VH: QVQLVQSGAEVKKPGSSVKVSCKASGGTLSSYAISWVRQAPGQGPEWMGWINPNSGGTNYAQKFQGRVTMTRDTSISTAYMELSRLRPDDTAVYYCASGYCSRFNCKDYWGQGTLVTVSS VL: QAVLTQPSSLSASPGASVSLTCTLRSGINVGAYRIYWYQQKPGSPPQFLLRYKSDSDKQQGSGVPSRFSGSRDASANAGILLISGLRSEDEADYYCAIWHSSAWVFGGGTQLTVLG | ≤ 0.0012 | ≤ 1e-06 | 810000 | 
abN48-4 (antibody, V domains shown, format as tested not clearly stated) VH: QVQLVQSGAEVKKPGSSVKVSCKASGGTLSSYAISWVRQAPGQGPEWMGWINPNSGGTNYAQKFQGRVTMTRDTSISTAYMELSRLRPDDTAVYYCASGYCNRTRCYDHWGQGTLVTVSS VL: QAVLTQPSSLSASPGASVSLTCTLRSGINVGAYRIYWYQQKPGSPPQFLLRYKSDSDKQQGSGVPSRFSGSRDASANAGILLISGLRSEDEADYYCAIWHSSAWVFGGGTQLTVLG | 0.031 | 1.6e-05 | 520000 | 

The next lines start with results.

Kd [4] [nM] | koff [4] [s⁻¹] | kon [4] [M⁻¹ s⁻¹] | Molecule | further results
0.012 | 0.00015 | 1.3e+07 | abN48-7 (antibody, V domains shown, format as tested not clearly stated) VH: QVQLVQSGAEVKKPGSSVKVSCKASGGTLSSYAISWVRQAPGQGPEWMGWINPNSGGTNYAQKFQGRVTMTRDTSISTAYMELSRLRPDDTAVYYCASGYCGRARCTSFWGQGTLVTVSS VL: QAVLTQPSSLSASPGASVSLTCTLRSGINVGAYRIYWYQQKPGSPPQFLLRYKSDSDKQQGSGVPSRFSGSRDASANAGILLISGLRSEDEADYYCAIWHSSAWVFGGGTQLTVLG | 
0.016 | 2e-05 | 1.2e+06 | abN48-8 (antibody, V domains shown, format as tested not clearly stated) VH: QVQLVQSGAEVKKPGSSVKVSCKASGGTLSSYAISWVRQAPGQGPEWMGWINPNSGGTNYAQKFQGRVTMTRDTSISTAYMELSRLRPDDTAVYYCASGYCSRSRCYDYWGQGTLVTVSS VL: QAVLTQPSSLSASPGASVSLTCTLRSGINVGAYRIYWYQQKPGSPPQFLLRYKSDSDKQQGSGVPSRFSGSRDASANAGILLISGLRSEDEADYYCAIWHSSAWVFGGGTQLTVLG | 
0.21 | 1.8e-05 | 85000 | abN48-6 (antibody, V domains shown, format as tested not clearly stated) VH: QVQLVQSGAEVKKPGSSVKVSCKASGGTLSSYAISWVRQAPGQGPEWMGWINPNSGGTNYAQKFQGRVTMTRDTSISTAYMELSRLRPDDTAVYYCASGYCSPSGCYVYWGQGTLVTVSS VL: QAVLTQPSSLSASPGASVSLTCTLRSGINVGAYRIYWYQQKPGSPPQFLLRYKSDSDKQQGSGVPSRFSGSRDASANAGILLISGLRSEDEADYYCAIWHSSAWVFGGGTQLTVLG | 

From patent US20220332835A1 (SHANGHAITECH UNIVERSITY, published 2022)
